Assays:
human PD-L1 ECD-His [1] = target: T1, human PD-L1 ECD-His (human, UniProt Q9NZQ7 19-238); experiment: SPR, ratio of KD to ref-1
T1 construct: extracellular domain; Analyte in all SPR and BLI runs; also called hPD-L1_ECD-His; hPD-L1 ECD-His; not shown: His tag

human PD-L1 ECD-His [2] = target: T1, human PD-L1 ECD-His; experiment: BLI, ratio of KD to ref-1
Experimental: (§1) Briefly, black 96-well plate was prepared with columns containing 200 μL/well of reagents required for determination of affinity. In general, Octet SA sensors were first placed in wells containing 1×Kinetics Buffer (PBS, 0.1% BSA, 0.02% Tween-20, pH 7.4) for 180 seconds to establish a baseline. […] Sensors were then regenerated by 3×5 second incubations in Regeneration Buffer (10 mM Glycine, pH 1.5) followed by a 5 second incubation in 1×Kinetics Buffer each time. Regeneration was repeated before measurement of each association/dissociation cycle. Sensors were then placed in fresh 1×Kinetics Buffer for 180 seconds to establish a baseline. Association was then measured by incubating the sensors for 5 minutes in wells containing hPD-L1-His followed by transferring to wells containing 1×Kinetics Buffer for 10 minutes to measure dissociation. Kinetics (ka, kd, and […] were measured by global fitting four association/dissociation cycles of data obtained from 1:3 serial dilutions of hPD-L1-His from 38.28 nM to 1.42 nM (one association/dissociation cycle for one concentration) with a 1:1 Langmuir binding model. All data were analyzed with Octet Data Analysis Software v.9.0 and representative of two independent experiments performed in duplicate.
(§2) All the data are representative of two independent experiments performed in duplicate.

human PD-L1 ECD-His [3] = target: T1, human PD-L1 ECD-His; experiment: SPR, hPD-L1-His, comparison of IgG isotypes of PL2#3
human PD-L1 ECD-His [4] = target: T1, human PD-L1 ECD-His; experiment: BLI Octet RED96, biotinylated antibody on SA sensor, hPD-L1-His analyte, 1:1 fit
Experimental: as §1, §2

[5] = target: T2, mouse PD-L1 on B16-F10 melanoma cells (mouse, UniProt Q9EP73 19-290); experiment: flow cytometry on mouse PD-L1 expressing B16-F10 melanoma cells, FITC-labeled anti-human IgG Fcγ, MFI
T2 construct: whole, on cells
T2 sequence (Q9EP73 19-290): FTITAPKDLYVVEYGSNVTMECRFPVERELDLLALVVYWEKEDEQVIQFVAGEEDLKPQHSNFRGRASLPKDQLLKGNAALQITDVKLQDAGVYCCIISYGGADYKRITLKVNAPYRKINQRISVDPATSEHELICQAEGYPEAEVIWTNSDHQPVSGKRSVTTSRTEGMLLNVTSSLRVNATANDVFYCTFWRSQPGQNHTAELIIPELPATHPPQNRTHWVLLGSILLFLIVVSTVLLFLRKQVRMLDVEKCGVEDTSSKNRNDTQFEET

[6] = target: T3, human PD-L1 on cells (PHA-activated human T cells); PD-L1-transfected CHO-S cells; A375 melanoma cells; … (human, UniProt Q9NZQ7 19-290); experiment: flow cytometry on A375 human melanoma cells, biotin-labeled anti-human IgG Fcγ and streptavidin-PE, MFI
T3 construct: whole, on cells; also called PD-L1 expressing T cells; PD-L1 expressing CHO-S cells
T3 sequence (Q9NZQ7 19-290): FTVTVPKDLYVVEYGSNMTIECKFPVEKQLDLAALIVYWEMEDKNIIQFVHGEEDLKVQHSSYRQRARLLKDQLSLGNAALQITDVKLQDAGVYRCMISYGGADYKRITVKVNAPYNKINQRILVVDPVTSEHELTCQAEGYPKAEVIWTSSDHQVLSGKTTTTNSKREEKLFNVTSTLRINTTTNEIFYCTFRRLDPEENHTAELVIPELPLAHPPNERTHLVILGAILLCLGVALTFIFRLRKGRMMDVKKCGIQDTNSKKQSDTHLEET

[7] = target: T3, human PD-L1 on cells (PHA-activated …); experiment: flow cytometry on NCI-H292 human NSCLC cells, biotin-labeled anti-human IgG Fcγ and streptavidin-PE, MFI
[8] = target: T3, human PD-L1 on cells (PHA-activated …); experiment: flow cytometry on PHA-activated human T cells, biotin-labeled anti-human IgG Fcγ and streptavidin-PE, MFI
[9] = target: T4, recombinant cynomolgus monkey PD-L1_ECD Fc-fusion protein (Sino Biological Inc.) (cynomolgus monkey, UniProt G7PSE7 19-238); experiment: ELISA: cynomolgus monkey PD-L1_ECD/Fc coated (9 ng/well), peroxidase-labeled goat anti-human IgG F(ab)'2, TMB, OD450
T4 construct: Bought
T4 sequence (G7PSE7 entry or part of it limits assumed): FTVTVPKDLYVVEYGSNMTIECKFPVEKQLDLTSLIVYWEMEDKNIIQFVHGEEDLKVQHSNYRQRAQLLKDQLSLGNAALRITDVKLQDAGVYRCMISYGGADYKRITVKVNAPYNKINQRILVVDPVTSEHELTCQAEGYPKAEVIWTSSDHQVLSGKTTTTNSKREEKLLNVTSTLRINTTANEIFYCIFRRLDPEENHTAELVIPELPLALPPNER
Experimental: The recombinant cynomolgus monkey PD-L1_ECD Fc-fusion proteins were purchased from Sino Biological Inc. PD-L1_ECD/Fc (9 ng per well) were immobilized onto 96-well assay plat by incubating overnight at 4° C. Nonspecific binding sites were blocked using 5% skim milk in PBS for one hour at room temperature. After washing plates three times with PBST, indicated concentrations of anti-PD-L1 antibodies and HLX01 (negative control) were incubated with the immobilized proteins for one hour at room temperature. The plates were washed three times with PBST and then incubated for one hour at room temperature with peroxidase-labeled goat anti-human IgG F(ab)′2 (Jackson ImmunoResearch Laboratories) diluted 1/10,000 in PBS. After washing, plates were developed using TMB (eBioscience). The absorbance was read at the wavelength of 450 nm by Varioskan LUX microplate reader (Thermo Scientific).
HLX01 (anti-CD20 mAb) was used as the negative control.

human PD-L1 ECD-His [10] = target: T1, human PD-L1 ECD-His; experiment: BLI, ratio of KD to parental PL3#7-19
Experimental: (§3) Briefly, black 96-well plate was prepared with columns containing 200 μL/well of reagents required for determination of affinity. In general, Octet anti-human-Fc sensors were first placed in wells containing 1×Kinetics Buffer (PBS, 0.1% BSA, 0.02% Tween-20, pH 7.4) for 180 seconds to establish a baseline. Sensors were then transferred to wells containing […] anti-PD-L1 variants for 600 seconds to load the anti-human-Fc tips. Sensors were then placed in fresh 1×Kinetics Buffer for 180 seconds to establish a baseline. Association was then measured by incubating the sensors for 3 minutes in wells containing hPD-L1-His followed by transferring to wells containing 1×Kinetics Buffer for 10 minutes to measure dissociation. Sensors were then regenerated by 3X5 second incubations in Regeneration Buffer (10 mM Glycine, pH 1.5) followed by a 5 second incubation in 1×Kinetics Buffer each time. Regeneration was repeated before measurement of each association/dissociation cycle. […] All data were analyzed with Octet Data Analysis Software v.9.0 and representative of two independent experiments performed in duplicate.
as §2

human PD-L1 ECD-His [11] = target: T1, human PD-L1 ECD-His; experiment: BLI Octet RED96, antibody on AHC anti-human-Fc sensor, hPD-L1-His analyte, 1:1 fit
Experimental: as §3, §2

[12] = target: T3, human PD-L1 on cells (PHA-activated …); experiment: flow cytometry on PD-L1 transfected CHO-S cells, anti-human IgG Fc-FITC, MFI
Experimental: Binding of tested de-glycosylated variants was assessed by incubating the PD-L1 expressing CHO-S cells (2E5 cells/well) with the serial-diluted antibodies in FACS buffer (PBS with 1% FBS) at 4° C. for 30 minutes. These cells were washed with flow buffer and then stained with anti-human IgG Fc-FITC (1:500×) at 4° C. for 30 minutes to detect antibody binding on the cell surface. Flow cytometric analyses were performed using CytoFlex (Beckman Coulter Inc.).

human PD-L1 ECD-His [13] = target: T1, human PD-L1 ECD-His; experiment: BLI, ratio of KD to parental PL3#7-43
Experimental: as §3, §2

T1 sequence (Q9NZQ7 19-238): as the sequence (G7PSE7 entry or part of it limits assumed) above, with T33A, S34A, N62S, Q68R, R82Q, L173F, A185T, I192T, L215H counted along it

B1: PL2#3 mtIgG1 (N297A) (antibody, V domains shown)
VH: EVQLVQSGGGLVKPGGSLRLSCAASGFTFSSYTMNWVRQAPGKGLEWVSSISSGSDYLYYADSVKGRFTISRDNAKNSLYLQMNSLRAEDTAVYYCARNELRWYPQAGAFDRWGQGTMVTVSS
VL: QSVVTQPPSMSAAPGQRVTISCSGSSSYIESSYVGWYQQLPGTAPRLLIYDDDMRPSGIPDRFSGSKSGTSATLAITGLQTGDEADYYCEIWRSGLGGVFGGGTKLTVLS
notes: N297A mutant of human IgG1 Fc backbone
Improvement over ref-1 (human PD-L1 ECD-His [1]): 2.86 fold | Improvement over ref-1 (human PD-L1 ECD-His [2]): 1 fold | Kd (human PD-L1 ECD-His [3]): 0.221 nM | koff (human PD-L1 ECD-His [3]): 0.000286 s⁻¹ | kon (human PD-L1 ECD-His [3]): 1.33e+06 M⁻¹ s⁻¹ | Kd (human PD-L1 ECD-His [4]): 2.46 nM | koff (human PD-L1 ECD-His [4]): 0.000561 s⁻¹ | kon (human PD-L1 ECD-His [4]): 221000 M⁻¹ s⁻¹ | binding result [5]: no binding (tested: 5 µg/mL) | EC50 (read off the curve) [6]: ~0.002 µg/mL | EC50 (read off the curve) [7]: ~0.01 µg/mL | EC50 (read off the curve) [8]: ~0.003 µg/mL | EC50 (read off the curve) [9]: ~0.03 µg/mL

B2: PL3#7-19 deglyco1 mtIgG1 (antibody, V domains shown)
VH: QVQLVQSGAEVKKPGSSVKVSCKASGGTFSSYPISWVRQAPGQGLEWMGRIIPILGIANYAQKFQGRVTITADKSTSTAYMELSSLRSEDTAVYYCARSRDGYAFGAFDVWGQGTLVTVSS
VL: QSVVTQPPPVSGAPGQRVTISCTGSSSNIGGGYDVHWYQQLPGTAPKLLIYGNSNRPSGVPDRFSGSKSGTSASLAITGLQAEDEADYYCQTYDSSLSATVVFGGGTKLTVLG
notes: N297A mutant human IgG1; also called PL3#7-19 deglycol
Fold Difference (against parental variant) (human PD-L1 ECD-His [10]): 1.48 fold | Kd (human PD-L1 ECD-His [11]): 0.417 nM | koff (human PD-L1 ECD-His [11]): 0.000162 s⁻¹ | kon (human PD-L1 ECD-His [11]): 384000 M⁻¹ s⁻¹ | EC50 (read off the curve) [12]: ~0.2 µg/mL

B3: PL3#7-19 deglyco3 mtIgG1 (antibody, V domains shown)
VH: QVQLVQSGAEVKKPGSSVKVSCKASGGTFSSYPISWVRQAPGQGLEWMGRIIPILGIANYAQKFQGRVTITADKSTSTAYMELSSLRSEDTAVYYCARSRDGYAFGAFDVWGQGTLVTVSS
VL: QSVVTQPPPVSGAPGQRVTISCTGSSSNIGGGYDVHWYQQLPGTAPKLLIYGNSQRPSGVPDRFSGSKSGTSASLAITGLQAEDEADYYCQTYDSSLSATVVFGGGTKLTVLG
notes: N297A mutant human IgG1
Fold Difference (against parental variant) (human PD-L1 ECD-His [10]): 1.74 fold | Kd (human PD-L1 ECD-His [11]): 0.356 nM | koff (human PD-L1 ECD-His [11]): 0.000176 s⁻¹ | kon (human PD-L1 ECD-His [11]): 506000 M⁻¹ s⁻¹ | EC50 (read off the curve) [12]: ~0.2 µg/mL

B4: PL3#7-19 deglyco2 mtIgG1 (antibody, V domains shown)
VH: QVQLVQSGAEVKKPGSSVKVSCKASGGTFSSYPISWVRQAPGQGLEWMGRIIPILGIANYAQKFQGRVTITADKSTSTAYMELSSLRSEDTAVYYCARSRDGYAFGAFDVWGQGTLVTVSS
VL: QSVVTQPPPVSGAPGQRVTISCTGSSSNIGGGYDVHWYQQLPGTAPKLLIYGQSTRPSGVPDRFSGSKSGTSASLAITGLQAEDEADYYCQTYDSSLSATVVFGGGTKLTVLG
notes: N297A mutant human IgG1
Fold Difference (against parental variant) (human PD-L1 ECD-His [10]): 1.68 fold | Kd (human PD-L1 ECD-His [11]): 0.369 nM | koff (human PD-L1 ECD-His [11]): 0.000151 s⁻¹ | kon (human PD-L1 ECD-His [11]): 415000 M⁻¹ s⁻¹ | EC50 (read off the curve) [12]: ~0.2 µg/mL

B5: PL3#7-19 mtIgG1 (antibody, V domains shown)
VH: QVQLVQSGAEVKKPGSSVKVSCKASGGTFSSYPISWVRQAPGQGLEWMGRIIPILGIANYAQKFQGRVTITADKSTSTAYMELSSLRSEDTAVYYCARSRDGYAFGAFDVWGQGTLVTVSS
VL: QSVVTQPPPVSGAPGQRVTISCTGSSSNIGGGYDVHWYQQLPGTAPKLLIYGNSTRPSGVPDRFSGSKSGTSASLAITGLQAEDEADYYCQTYDSSLSATVVFGGGTKLTVLG
modifications: Antibody was biotinylated (NHS-PEG4-biotin, sites not specified) for the Octet assay of Table 11.
notes: N297A mutant human IgG1; also called PL3#7-19 parental mtIgG1
Improvement over ref-1 (human PD-L1 ECD-His [2]): 4.57 fold | Fold Difference (against parental variant) (human PD-L1 ECD-His [10]): 1 fold | Kd (human PD-L1 ECD-His [4]): 0.538 nM | koff (human PD-L1 ECD-His [4]): 0.000201 s⁻¹ | kon (human PD-L1 ECD-His [4]): 419000 M⁻¹ s⁻¹ | Kd (human PD-L1 ECD-His [11]): 0.619 nM | koff (human PD-L1 ECD-His [11]): 0.000207 s⁻¹ | kon (human PD-L1 ECD-His [11]): 328000 M⁻¹ s⁻¹ | EC50 (read off the curve) [12]: ~0.2 µg/mL | binding result [5]: no binding (tested: 5 µg/mL) | EC50 (read off the curve) [6]: ~0.01 µg/mL | EC50 (read off the curve) [7]: ~0.02 µg/mL | EC50 (read off the curve) [9]: ~0.05 µg/mL

B6: PL3#7-54 mtIgG1 (antibody, V domains shown)
VH: QVQLVQSGAEVKKPGSSVKVSCKASGGTFSSYPISWVRQAPGQGLEWMGRIIPILGIADYAQKFQGRVTITADKSTSTAYMELSSLRSEDTAVYYCARSRPGYAFGAFDIWGQGTLVTVSS
VL: QSVVTQPPPVSGAPGQRVTISCTGSSSNIGQGYDVHWYQQLPGTAPKLLIYANSNRPSGVPDRFSGSKSGTSASLAITGLQAEDEADYYCQTYDSSLSARVVFGGGTKLTVLG
modifications: Antibody was biotinylated (NHS-PEG4-biotin, sites not specified) for the Octet assay of Table 11.
notes: N297A mutant human IgG1
Improvement over ref-1 (human PD-L1 ECD-His [2]): 3.19 fold | Kd (human PD-L1 ECD-His [4]): 0.772 nM | koff (human PD-L1 ECD-His [4]): 0.000228 s⁻¹ | kon (human PD-L1 ECD-His [4]): 307000 M⁻¹ s⁻¹ | EC50 (read off the curve) [6]: ~0.001 µg/mL | EC50 (read off the curve) [7]: ~0.008 µg/mL | EC50 (read off the curve) [8]: ~0.004 µg/mL | EC50 (read off the curve) [9]: ~0.05 µg/mL

B7: PL3#7-43 deglyco1 mtIgG1 (antibody, V domains shown)
VH: QVQLVQSGAEVKKPGSSVKVSCKASGGTFSSYPISWVRQAPGQGLEWMGRIIPILGIANYAQKFQGRVTITADKSTSTAYMELSSLRSEDTAVYYCARSRPGYAFGAFDIWGQGTLVTVSS
VL: QSVVTQPPPVSGAPGQRVTISCTGSSSNVGAGYDVHWYQQLPGTAPKLLIYGNSNRPSGVPDRFSGSKSGTSASLAITGLQAEDEADYYCQTYDSSGSARVVFGGGTKLTVLG
notes: N297A mutant human IgG1; also called PL3#7-43 deglycol
Fold Difference (against parental variant) (human PD-L1 ECD-His [13]): 0.79 fold | Kd (human PD-L1 ECD-His [11]): 0.439 nM | koff (human PD-L1 ECD-His [11]): 0.000271 s⁻¹ | kon (human PD-L1 ECD-His [11]): 612000 M⁻¹ s⁻¹ | EC50 (read off the curve) [12]: ~0.2 µg/mL
